From US6156511A, “Peptide library and screening method” (Affymax Technologies N.V., priority 1998, dated 2000)
Where two headings read alike, the source gives them in different places.

Experiments:
[1] = biological target: headpiece dimer A4.5 (mutant) Q18R (second headpiece) (Escherichia coli) (UniProt P03023); conditions: panning of protein-plasmid complex
[2] = biological target: Lac repressor (LacI)-peptide fusion, full length (Escherichia coli) (UniProt P03023); conditions: plasmid panning on D32.39 antibody; deletion of lacOs, near background
DNA = conditions: cited from earlier work
[3] = biological target: headpiece dimer B4.5 (mutant) Q18R (second headpiece) (Escherichia coli) (UniProt P03023); conditions: panning Exp. 3; lacOs plasmid complex stability, site of binding not established
[4] = biological target: Lac repressor (LacI)-peptide fusion, full length (Escherichia coli, UniProt P03023 P03023:1-360); assay: panning Exp. 3, partial (B) induction; conditions: chain copies: 4 (stated tetramer)
[5] = test system: plasmid pCMG14 fragments / lacOs-containing fragments; assay: Protein-DNA binding experiments with plasmid fragments (gel shift, 32P-labeled fragments); conditions: over-expressed polypeptides; with unlabelled herring DNA competitor
Procedure: To determine the plasmid binding site(s) of headpiece dimer mutant A4.5 and the non-mutant B7, several protein-DNA binding experiments were performed.

wild-type lacO = conditions: single wild-type lacO; cited from earlier work
lacZYA = assay: Repression of chromosomal lacZYA, direct β-galactosidase assay in strain ARI 20; format: cell-based, E. coli
Description: One can estimate the lacI expression level necessary to fill the available binding sites in a typical plasmid p.MC5 derivative by observing the behavior of strain ARI 20 (lacI^- lacZYA^+) transformed with pMC3 or pMC5 (encoding only the linker peptide GADGA [SEQ. ID NO.:65]). Because the lacO sites in plasmids pMC3 and pMC5 have higher affinity than those in the lacZYA operon, the available repressor should fill the plasmid sites first. Substantial repression of lacZYA should be observed only if there is an excess of repressor beyond the amount needed to fill the plasmid sites. As shown by color level on X-gal indicator plates and direct assays of β-galactosidase (see Miller, Experiments in Molecular Genetics (Cold Spring Harbor Laboratory, Cold Spring Harbor, N.Y. (1972)), incorporated herein by reference), the amount of repressor produced by pMC5 is sufficient to fill the lacO sites and repress greater than 200 fold lacZYA in ARI 20 host cells during growth in normal LB medium (2.4 units compared to 500 units from ARI 20 transformed with vector pBAD18, which has no lacI). The repressor encoded by pMC3 was partially inactivated by the addition of the dynorphin B tail, allowing about 10 fold higher expression of lacZYA (37 units). […]

plasmid lacking lacOs
binding signal (fold enrichment) ([1]; lacOs not required): 44
binding signal (fold drop in enrichment) [2]: 446

arc repressor: arc repressor of phage P22 (MKGMSKMPQFNLRWPREVLDLVRKVAEENGRSVNSEIYQRVMESFKKEGRIGA; UniProt P03050 1-53, looked up)
dissociation half-life (DNA): 1.33 h

AATTGTGAGCGCTCACAATT (double strand)
binding signal (fold enrichment) ([1]; plasmid with lacOs): 43
activity (fold enrichment) [3]: 850

B1: lacOs (symmetric lac operator) on plasmid or plasmid fragment (dsDNA)
DNA 1: AATTGTGAGCGCTCACAATT
DNA 2: AATTGTGAGCGCTCACAATT
activity [4]: 155 fold enrichment

B2: lac repressor: 37 kDa product of the E. coli lacI gene, binds lacO (protein, UniProt P03023 1-360, looked up)
Lactose operon repressor: MKPVTLYDVAEYAGVSYQTVSRVVNQASHVSAKTREKVEAAMAELNYIPNRVAQQLAGKQSLLIGVATSSLALHAPSQIVAAIKSRADQLGASVVVSMVERSGVEACKAAVHNLLAQRVSGLIINYPLDDQDAIAVEAACTNVPALFLDVSDQTPINSIIFSHEDGTRLGVEHLVALGHQQIALLAGPLSSVSARLRLAGWHKYLTRNQIQPIAEREGDWSAMSGFQQTMQMLNEGIVPTAMLVANDQMALGAMRAITESGLRVGADISVVGYDDTEDSSCYIPPLTTIKQDFRLLGQTSVDRLLQLSQGQAVKGNQLLPVSLVKRKTTLAPNTQTASPRALADSLMQLARQVSRLESGQ
binding to 32P-labeled plasmid fragments [5]: specific binding of lacI to lacOs -containing fragments
association rate constant (wild-type lacO): 7e+09 M⁻¹ s⁻¹
half-life for the lac repressor-lacO complex (wild-type lacO): about 30 min

B3: pMC5: library plasmid encoding lac repressor with only the linker peptide GADGA (protein, UniProt P03023 1-360, looked up)
Lactose operon repressor: MKPVTLYDVAEYAGVSYQTVSRVVNQASHVSAKTREKVEAAMAELNYIPNRVAQQLAGKQSLLIGVATSSLALHAPSQIVAAIKSRADQLGASVVVSMVERSGVEACKAAVHNLLAQRVSGLIINYPLDDQDAIAVEAACTNVPALFLDVSDQTPINSIIFSHEDGTRLGVEHLVALGHQQIALLAGPLSSVSARLRLAGWHKYLTRNQIQPIAEREGDWSAMSGFQQTMQMLNEGIVPTAMLVANDQMALGAMRAITESGLRVGADISVVGYDDTEDSSCYIPPLTTIKQDFRLLGQTSVDRLLQLSQGQAVKGNQLLPVSLVKRKTTLAPNTQTASPRALADSLMQLARQVSRLESGQ
modifications: C-terminal GADGA linker peptide
repression of lacZYA (lacZYA; ARI 20, LB medium, compared with vector pBAD18 (no lacI)): greater than 200 fold
β-galactosidase (lacZYA; ARI 20 host cells, normal LB medium): 2.4 units
